Experimental findings from PMC10311653 (ACS Central Science, 2023) are described below.

Changes are numbered by the printed parent chain.

To fix the notation:
B1: Q15Kcr-C7 phage (scFv, V domains shown)
VH: EVQQQQSGTELMKPGASVKISCKATGYTFSSYWIEWVKQRPGHGLEWIGEILPGSGSTNYNEKFKGKATFTADTTSNTAYMQLSSLTSEDSAVYYCASGGYRPSMDYWGQGISVTVSS
VL: GIELTQSQKFTSTSVGDRVSVTCKASQNVGTNVAWYQQKPGQSPKALIYQASYRYSGVPDRFTGSGSGTDFTLTISNVQSEDLAEYFCQQYNSYPLTFGAGTKLELK
notes: mouse scFv from the Q15Kcr immunization library; source: E. coli XL1-Blue with M13KO7 (ΔpIII) hyperphage, monoclonal phage, PEG 8000/NaCl precipitated
B2: Q15Kcr-A3 phage (scFv, V domains shown)
VH: EVQLQQSGAELVKPGASVKLSCTASGFNIKDTYIHWVKQRPEQGLEWIGRIDPANGNTKYDPKFQGKATIRADTSSNTAYLQLSSLTSEDTAVYYCAIHYYGSFAYWGQGTLVTVSA
VL: DILMTQSHKFMSTSVGDRVSITCKASQDVGTAVAWYQQKPGQSPKLLIYWASTRHTGVPDRFTGSGSGTDFTLTISNVQSEDLADYFCQQYSSYPYTFGGGTKLEIK
notes: as for B1
B3: Q15Kcr-B6 phage (scFv, V domains shown)
VH: B2 VH with Q6E, G56V, R71T, Y106H, S116P
VL: B2 VL with L3V, Y96L, G100S
notes: as for B1
B4: Q15Kcr-H2 phage (scFv, V domains shown)
VH: B2 VH with G56V, R71T, Y106H
VL: B1 VL with G1D, E3L, L4M, T11M, L96Y, A100G
notes: as for B1
B5: Q15Kcr-D1 phage (scFv, V domains shown)
VH: B2 VH with Q6E, K30E, G56D, R71T, A72E
VL: DILMTQSRKFMSTSVGDRVSVTCKASQNVGTNVAWYQQKPGQSPEALIYSASYRYSGVPDRFTGSGSGTDFTLTISNVQSEDLADYFCQQYNTYPYTFGGGTKLEMK
notes: as for B1
B6: Q15Kcr-C1 phage (scFv, V domains shown)
VH: B2 VH with N55D, R71T, A105P
VL: DIQMTQTTSSLSASLGDRVSISCRTSQDISNYLNWYQQKPDGTLKLLIYFTSRLHSGVPSRFSGSGSGTDYSLTISNLEQEDIATYFCQQGKTLPYTFGGGTKLELK
notes: as for B1
B7: CL-E2 phage (scFv, V domains shown)
VH: B1 VH with Q4L, Q5K, Q6E, T9A, T74I, T75S, Y107F, I112T
VL: DIVMTQSQKFMSTSVGDRVSITCKASQNVRTAVAWYQQKPGQSPKALIYLASNRHTGVPDRFTGSGSGTDFTLTITNVQSEDLADYFCLQHWNYPLTFGAGTKLELK
notes: mouse scFv from the E64AcrK immunization library; also called phage CL-E2; source: E. coli XL1-Blue with M13KO7 (ΔpIII) hyperphage, monoclonal phage, PEG 8000/NaCl precipitated
B8: Q15Kcr-H11 phage (scFv, V domains shown)
VH: EVQLQQSGAELVKTGASVKLSCTASGFSIKDTYIHWVKQRPEQGLEWIGRIDPDPATINTKYDPHFQDKATITADTSSNTTYLQLSSLTSEDTAVYYCAIHYYGSFPYWGQGTLVTVSA
VL: B6 VL with S20T, T25A, L44V, K92N
notes: as for B1
B9: Q15Kcr-G8-mFc (Fc fusion, mouse)
VH: B2 VH with G26D, N55D, R71T, A105P
VL: B2 VL with L3V, S7A, K24Q
notes: as the scFv of m42; source: HEK 293F, transfected, purified (Protein A, Superdex 200 SEC)
B10: CL-E2-mFc (Fc fusion, mouse)
VH: B1 VH with Q4L, Q5K, Q6E, T9A, T74I, T75S, Y107F, I112T
VL: B7 VL
notes: as the scFv of m23; also called CL-E2-mFc fusion antibody; source: HEK 293F, transfected, purified (Protein A, Superdex 200 SEC)
B11: Q15CK-A8 (antibody, V domains shown)
VH: B2 VH with Q3K, Q6E, K30E, R71T, A72E
VL: B5 VL with L3Q, M4I, E45K, D85E, T93S, M106L
B12: Q15CK-H5 (antibody, V domains shown)
VH: B2 VH with K19R, I34M, K38R, F64S, I70L, R71T, Q82H
VL: B1 VL with G1D, E3V, L4M, T11M, Q50S
B13: Q15CK-B10 (antibody, V domains shown)
VH: B2 VH with A9T, I34M, G56D, R71T, A72T, A105P
VL: B2 VL with L3V, H8Q, D28N, W50S, T53N, H55Y, V78M, I106L
B14: Q15CK-D4 (antibody, V domains shown)
VH: EVQLVESGGGLVQPGGSRKLSCAASGFTFSTFGMHWVRQAPEKGLEWVAYISSGSYTIYYADTVKGRFTISRDNPKNTLFLQMTSLRSEDTAMYYCARDDYDVNYYAMDYWGQGTSVTVSS
VL: DIVLSQSPAIMSASPGEKVTMTCSASSSVSYMHWYQQKSSTSPKLWIYDTSKLASGVPGRFSGSGSGNSYSLTISSMEAEDVATYYCFQGSGYPYTFGGGTKLEIK
B15: Q15CK-B1 (antibody, V domains shown)
VH: EVQLQQSGPQLVRPGASVKISCKASGYSFTSYWMHWVKQRPGQGLEWIGMIDPSDSETRLNQKFKDKATLTVDKSSSTAYMQLSSPTSEDSAVYYCARWDSWGQGTLVTVSA
VL: DIVMTQSPSSLTVTAGEKVTMSCKSSQSLSKSGNQKNYLTWYQQKPGQPPKLLIYWASTRESGVPDRFTGSGSGTDFTLTISSVQAEDLAVYYCQNDYSYPFTFGSGTKLEIK
B16: Q15CK-D6 (antibody, V domains shown)
VH: B15 VH with S31N, N61D
VL: B15 VL with V3L, M4L, S30L, K31N
B17: E64Kcr-G9-mFc (Fc fusion, mouse)
VH: B14 VH with T31S, Y56S, N104R, Y105A
VL: DIQMIQSPASLSASVGETVTITCRASQNIYSYLAWYQQKQGKSPQLLVYNAKTLAEGVPSRFSGSGSGTQFSLKINSLQPEDFGSYYCQHHYGTPLTFGAGTKLELK
notes: as the scFv of m27; source: HEK 293F, transfected, purified (Protein A, Superdex 200 SEC)
B18: E64Kcr-A5-mFc (Fc fusion, mouse)
VH: B14 VH with T31S, A97T, N104R, Y105A
VL: DIVMTQPSSSFSVSLGDRVTITCKASEDIYNRLAWYQQKPGNAPRLLISGATTLETGVPSRFSGSGSGKDYTLTITSLQTEDVATYYCQQYWSTPLTFGAGTKLELK
notes: as the scFv of m25; source: HEK 293F, transfected, purified (Protein A, Superdex 200 SEC)
B19: E64Kcr-A4-mFc (Fc fusion, mouse)
VH: EVKLEESGGGLVQPGGSMKLSCVASGFTFSNYWMNWVRQSPEKGLEWVAEIRLKSNNYATPYAESVKGRFTISRDDSKSSVYLQMNNLRAEDTGIYYCTRGGIFLAYWGQGTLVTVSA
VL: B6 VL with M4L, T7P, S20T, T25A, L44V, F50Y, K92N
notes: as the scFv of m29; source: HEK 293F, transfected, purified (Protein A, Superdex 200 SEC)
B20: E64Kcr-B9-mFc (Fc fusion, mouse)
VH: B2 VH with I34M, R71T, F104L, A105P, Y106V, Q109A, L112T, A117S
VL: B2 VL with D1G, L3V, Y96L, G100A, K103M, I106L
notes: as the scFv of m30; source: HEK 293F, transfected, purified (Protein A, Superdex 200 SEC)

The first experiment has as its target T1, wildtype (WT) human interleukin-1β (Homo sapiens, UniProt P01584).
T1 construct: human interleukin-1β (hIL-1β); pET28a vector; also called WT hIL-1β; hIL-1β; source: E. coli BL21 (DE3), purified (Ni-NTA, Superdex 75 SEC)
Nature of the experiment: ELISA; phage ELISA; antigen (100 ng) coated on the plate; phages added (pfu titration) in 3% skim milk in DPBST, 2 h at 37 °C. As to conditions: one partner purified. On the technique in general: An ELISA detects its analyte on a solid surface through an enzyme-linked reagent.
B1: the binding result was “binds”.

Turning to B2, the binding result is reported as “binds”.

On to B3, for which the binding result is given as “binds”.

Consider B4, for which the binding result was “binds”.

B5: the binding result is listed as “binds”.

B6: the binding result is listed as “binds”.

As for B7, the binding result is reported as “binds”.

For B8, the binding result is reported as “binds”.

Another experiment addresses T2, hIL-1βQ15G (Homo sapiens, UniProt P01584, point mutant).
T2 construct: human interleukin-1β (hIL-1β); source: E. coli BL21 (DE3), purified (Ni-NTA, Superdex 75 SEC)
Nature of the experiment: not stated; binding affinity of Q15Kcr-G8-mFc for hIL-1β, hIL-1βQ15Kcr and hIL-1βQ15G (Figure S13E). To be noted: both partners purified.
As for B9, the “fold decrease of affinity” value is approximately 10 fold.

The target of another experiment is T1, wildtype (WT) human interleukin-1β. Nature of the experiment: ELISA; antigen (100 ng) coated on the plate; scFv-mFc added in 3% skim milk in DPBST, 2 h at 37 °C; EC50. To be noted: both partners purified.
On to B10, for which the binding result was “binds”.

The next experiment concerns the target hIL-1βQ15Kcr (Homo sapiens, UniProt P01584, point mutant, Nε-crotonyl-L-lysine (Kcr) at 15).
Test: not given
Conditions: not given
Consider B11, for which the binding result was “binds”.

Turning to B12, the binding result was “binds”.

With B13, the binding result is “binds”.

On to B14, for which the binding result is given as “binds”.

Consider B15, for which the binding result is recorded as “binds”.

Consider B16, for which the binding result is listed as “binds”.

Another experiment concerns the target T1, wildtype (WT) human interleukin-1β.
Test: not given
Conditions: not given
For B11, the binding result is on record as “binds”.

For B12, the binding result was “binds”.

With B13, the binding result is “binds”.

As to B14, the binding result was “binds”.

For B15, the binding result was “binds”.

Regarding B16, the binding result was “binds”.

Another experiment has as its target T3, hIL-1β V151A (Homo sapiens, UniProt P01584, point mutant).
T3 construct: human interleukin-1β (hIL-1β); source: E. coli BL21 (DE3), purified (Ni-NTA, Superdex 75 SEC)
Nature of the experiment: ELISA; antigen (100 ng) coated on the plate; scFv-mFc added in 3% skim milk in DPBST, 2 h at 37 °C; EC50. As to conditions: both partners purified.
Turning to B17, the binding result was “binds”.

For B18, the binding result is recorded as “binds”.

Consider B19, for which the binding result is on record as “binds”.

Consider B20, for which the binding result was “binds”.

Another experiment deals with T1, wildtype (WT) human interleukin-1β. The experiment is described as above. As to conditions: both partners purified. This is another data set of the same source.
One may read the EC50 as the concentration at which the effect is half-maximal. B17: the EC50 was determined as 0.197 nM.

On to B18, for which the midpoint of the response, the EC50, lay at 0.034 nM.

On to B19, for which it took 0.121 nM to reach a half-maximal effect (EC50).

B20 displayed a concentration for a half-maximal effect (EC50) of 0.04 nM.
